Measured values taken from the DeepSol protein solubility set.

Assay: soluble on expression in E. coli; label from the status in PepcDB or PDB records

| Sequence | soluble on expression in E. coli |
| --- | --- |
| MPRTIWSGAISFGLVTVPIHVVSATEDHSVRFHQYHLEDMGRVRVRKYCELEDREVTQDEIGKGYELSKDTVIPVLDEELRELPLPTAKAIEIEAFVPLASIDPMGIGEGYYLQPDGQVAAKPYKLLRQALERSSKVAVAKYAWSGRERLGMLRVREEAIVLHAMRWPDEIRD | not soluble |
| GPGSGDPYWAYSGAYGPEHWVTSSVSCGGSHQSPIDILDHHARVGDEYQELQLDGFDNESSNKTWMKNTGKTVAILLKDDYFVSGAGLPGRFKAEKVEFHWGHSNGSAGSEHSVNGRRFPVEMQIFFYNPDDFDSFQTAISENRIIGAMAIFFQVSPRDNSALDPIIHGLKGVVHHEKETFLDPFILRDLLPASLGSYYRYTGSLTTPPCSEIVEWIVFRRPVPISYHQLEAFYSIFTTEQQDHVKSVEYLRNNFRPQQALNDRVVSKS | soluble |
| MNKISPLGSNWNEFEQQIFNEEEIRESNLRVALIKELITSRQQLGISQKQLETLSGVKQPMIARIEKGQTNPQLETLLKLLAPLGKTLSIVPLRVKNA | not soluble |
| SNAMSKITFKDIYIDGNKITEDSRKAIYLLPPQPLKYASNTWIYKTMPTMNQWLKDIEVQKKMHLNQSSYHLSFSFPANEKIDEVLLEKIRELGFQIGVLELYVIEAKALKELSRKRDVDIQLVSSNNINDYLHVYDAFARPFGDSYANMVKQHIYSSYNLDDIERLVAYVNHQPVGIVDIIMTDKTIEIDGFGVLEEFQHQGIGSEIQAYVGRMANERPVILVADGKDTAKDMYLRQGYVYQGFKYHILKENI | soluble |
| MSSVYDFNVKNANGDDVSLSDYKGKVLIIVNVASQCGLTNKNYTQLKELLDVYKKDGLEVLAFPCNQFAGQEPSCEIDIQAFVADKFKFEPTLFQKIDVNGDKQSPLFKFLKNEKGGFMFDAIKWNFTKFLVGRDGKIIKRFGPTTDPKDMEKDIKEALGEKL | not soluble |
| MNSLILGAARRFVGLHLRVSVNLLQNESFSSYSFSSASAADVSPKGETFKSSSFLDSLRLATKLTDKGNSDSVLDLLRSYGFTDSQISSIIRSDSRVLIDNDATSLGSKLQFLQSRGASSSELTEVVSTVPKILGKREGKSLSRYYDFIKVIIEADKSSKYEKISHSLAQGNKIRNILVLRELGVPQKRLLLLLISKSQPVCGKEKFDASLKKVVEMGFDPTTSTFVHALHMLYQMSDKTIEEKIRVYRSVGFSVDDVWAMFKKWPRSLTHSEKKVANSIETFLGLGFSRDVFMMMFKRFPPCIGYSTEAVKKKTEFLVKEMNWPVKAVASIPQVLGYSLEKRTVPRCNVIKVLMSKGLLESELPPMSSVLTSTSESFLNLYVSKHDDKQLVAELMAIFTGNRVSLTDQKARLEQ | soluble |
| MGSDKIHHHHHHMSLSYLQTSLDRIDAAARDDVIEICINPDGSCWGEFQGDHFMRKLDQALTATEVKDLGNQIASSANTTMSKDRPIVSVSITYKGRPIRAQVITPPAVLSAMSISLRFFSSLPLDGIALDFLYGKERKLEKLRLKKTRELREVVAAGVIDDALAFCVDNKLNMIVSGGTSTGKTVAARKILSHVPADERIVTIEEAAELLPTQPNAVTLIANRDAEFQTADVLLTATLRMRPDRIILGEVRGKEAMTFLEAINTGHGGSMTTLHAETPQLAVQRLAIAALKTEIPMTYADMIQYIENSIDVIIQAGRHDGRRGITEFYLPGATEIGVSQ | not soluble |
| MAHHHHHHMCYDCATSSSLVTTILNGMHVFNLDERFYGANLAAGLSASNVESYPYHTIGEEPLMSSCFFNAGQLFAVGSSCGSVTVVSRRSRALTSCYATPDSFPIRSLSEIPAQPNCLLTCTEQGAAIVDVERSQLRMSLANPAAGRAVAAVPLQLHTFVVANYDGKVLLYDTRYRSSPSSVLSLPDQITCLAVSRDTPEVCVGTVGGRVFTLRCAEGPQREQAFGMSNRRSPVRCVAMDNGRIAAGDLAGRLALIDTADVPDPTVYWSAETLLRLPRPSGRARHA | not soluble |
| MSEKQINNFSLISRLFGNLFYRFPTDKVLADAFVWLQQEGLSQVWALDTDKESELALNSLQVKIDLNLLNEEYQKLFATNGKVMTAISAYGIDVEEFVNFRLVRNMPEVESADHFALLLLTASWLEDNSDSLVAQQEFFETFLLPCAAKFLTQVENQATLPFYRALALLTREILATMADELEEE | soluble |
| MKFCSQCGGEVILRIPEGDTLPRYICPKCHTIHYQNPKVIVGCIPEWENKVLLCKRAIAPYRGKWTLPAGFMENNETLVQGAARETLEEANARVEIRELYAVYSLPHISQVYMLFRAKLLDLDFFPGIESLEVRLFGEQEIPWNDIAFRVIHDPLKRYMEERHHGQPAFHLGIINKPQAGSNSNE | soluble |
| MSLSQPIKLGIITDRVGAAKPYAEPVLQGAQVAAKELNASGGVLGRPIELLVEDDQGRPDLSATAARKMVDSGVAFILSISWTSATQQAQSVTVETGTPHLAPSNSGDTLTTQIANPNFWQTGPLASSQVSTLLAYARSKSFKRVAIIGDNTGLGQLMTQSFKAGIEAAKIQVVSEEVVPRGANSADAQIQRVRASNPDAIFLTGILAPENTLILRAYRLLGLKAPLLGNFSFSNIQYASVAKGLLDGLVFIDAFDPTKPQVQRFIATYTKAAGTAPDNINAYGYDGVMLVADAIRRAGGTDKLKVRDAMQATKGFVGVLGAQGASYGFANGKRTGFDGDGLVVRIYEGDRQGKVQFTGTREGHHHHHH | soluble |
| MSLDLGSNSFHMVIARVVDGAMQIIGRLKQRVHLADGLGPDNMLSEEAMTRGLNCLSLFAERLQGFSPASVCIVGTHTLRQALNATDFLKRAEKVIPYPIEIISGNEEARLIFMGVEHTQPEKGRKLVIDIGGGSTELVIGENFEPILVESRRMGCVSFAQLYFPGGVINKENFQRARMAAAQKLETLTWQFRIQGWNVAMGASGTIKAAHEVLMEMGEKDGIITPERLEKLVKEVLRHRNFASLSLPGLSEERKTVFVPGLAILCGVFDALAIRELRLSDGALREGVLYEMEGRFRHQDVRSRTASSLANQYHIDSEQARRVLDTTMQMYEQWREQQPKLAHPQLEALLRWAAMLHEVGLNINHSGLHRHSAYILQNSDLPGFNQEQQLMMATLVRYHRKAIKLDDLPRFTLFKKKQFLPLIQLLRLGVLLNNQRQATTTPPTLTLITDDSHWTLRFPHDWFSQNALVLLDLEKEQEYWEGVAGWRLKIEEESTPEIAAEGHHHHHH | not soluble |
| MDGMTPNRLLDLAIQSLLSNESAAIQALEDIPRELFVPLFIAAFKGGHKNTLSAMVKVWPFYCLHMGSLRILEPQHELLKAIIENLPVHPAQTSAFWGPKLRILDLRQDTNCRITCPEVSTKSPSCFHSCIYSDSSITKIERQLCFINSGCKTLLPRPVELILDLFLDGSLIEKDFLILLMHKIEESLGFLHVCCRDLQIDKPCKCKCTLKFLDLQCVDQLSVDRGSLSDITSILGQMGHLESLTLSNVTFRSLRGKVFKIFLSHLQRMENLKELSFSSFRLKNHLDRVLRVLPPDLDFLYLPFCGLSYRDIKFMSQSPHVTHLKLLNLSNNLMYWDDFGPFHSVLSNLSGTLQHLEINHCHISDSAISALIPALIRCTHLRVLGFACNPITMPMLVNIMHHLTPMMELKYVIYPIPVHCYERWHFHGSLDRGKLAIKVLGLPVQAKYPRNGWSKAISSSDENIPKAQTDTIPTCSWSWSLSRLQSAVQPPRDNLGRWKDTYAERAGNAVHGAV | not soluble |
| MGSDKIHHHHHHHVETIKNTFLNPKSNKVLVVAHRGNWRSAPENSTAAIDSAIAMKVDIVEIDIQKTKDGQLILMHDNTLDRTTTGKGEIKNWTLADIKKLKLKDKDGKVTNYVVPTLEEALLTAKGKIMVNLDKAYDIFDDVYAILEKTETQNQVIMKGGQPIETVKREFGSYLDKVLYMPVIDLGNKEAEKIITDYLKELRPAAFEIIYSDPKNPLPPKIKQLLFKKSLIWYNTLWGSLAGNHDDNLALTDPEKSYGYLIEQLGARILQTDQPAYLLDYLRKKGWHN | not soluble |
| MSEDGGVTTDERACAAPLQLSNTFPRVSRHAVQTGLSPHPRVRNVIAVGSGKGGVGKSTIAVNLAVALQRTGVRVGLLDADIYGPSVPAMLGLSGRPESPDNKLIEPLRAFGIEAMSIGLLIDVDTPMIWRGPMATSALTQLFNDTLWGDLDYLLIDLPPGTGDIQLTLSQKIPVAGAVIVTTPQDIATLDARKALKMFEKVNVPVLGIVENMAMHCCRQCGHVEHLFGEGGAQRMAEHYHVPLLGSLPLDIVIREHGDLGQPITVAAPKGSVGQAYAAVAACLAAELAKRPRAAIPMTTTLGLEHHHHHH | not soluble |
| AIAGTAFPTMAEVVAEVAEMPTQMSPGAVEMSTPMSAEMMEMSTEVTEMTPGEALASSLFFQHHQFMCSECGSLYNTLEEVLSHQEQHMLAVSEEEALTTQNVGLEPELVPGAEGPFQCGECSQLILSPGELLAHQDAHLRESANQIQYQCWDCQELFPSPELWVAHRKAQHLSATVAEPPVPPPLPPPTPLPPPSPPSEVKMEPYECPECSTLCATPEEFLEHQGTHFDSLEKEERNGLEEEEEDDEEDEEDDEEMEDEEAMAEVGDDAVGGDESTAGWAQGCGDCPQHQPSAGARRQHRRTAHSPASATHPFHCSQCQRSFSSANRLQAHGRAHVGGTHECTTCSKVFKKAASLEQHLRLHRGEARYLCVDCGRGFGTELTLVAHRRAHTANPLHRCRCGKTFSNMTKFLYHRRTHAGKSGAPPTGATAPPAPAEPTPPPPPPAPPAQLPCPQCSKSFASASRLSRHRRAVHGPPERRHRCGVCGKGFKKLIHVRNHLRTHTGERPFQCHSCGKTFASLANLSRHQLTHTGARPYQCLDCGKRFTQSSNLQQHRRLHLRPVAFARAPRLPITGLYNKSPYYCGTCGRWFRAMAGLRLHQRVHARARTLTLQPPRSPSPAPPPPPEPQQTIMCTELGETIAIIETSQPLALEDTLQLCQAALGASEAGGLLQLDTAFV | soluble |
| MSYMLPHLHNGWQVDQAILSEEDRVVVIRFGHDWDPTCMKMDEVLYSIAEKVKNFAVIYLVDITEVPDFNKMYELYDPCTVMFFFRNKHIMIDLGTGNNNKINWAMEDKQEMVDIIETVYRGARKGRGLVVSPKDYSTKYRY | soluble |
| MLRRQMSFNGKSDMGILYLVPTPIGNLEDMTFRAIDTLKSVDAIAAEDTRQTKKLCHVYEIETPLVSYHEHNKESSGHKIIEWLKSGKNIALVSDAGLPTISDPGAEIVKDFTDIGGYVVPLPGANAALTALIASGIVPQPFFFYGFLNRQKKEKKKELEALKKRQETIIFYEAPHRLKETLSAMAEILGDREIAVTRELTKKYEEFIRGTISEVIGWANEDQIRGEFCLVVEGSNNEEVDEEEQWWETLTAKEHVEHYISKGATSKEAIKKAAVDRNVPKREVYDAYHIKQLEHHHHHH | not soluble |
| MGSDKIHHHHHHMRGMMLGMLAETHIHSGAGRSEGFVDLPVAREAVTSYPVIAGSSLKGALRDAARERGMDESIFGDQDRAGDVLVSDARLLLLPVRSLTGSYRWVTCPHILERLSRDMRLCGISDGFEGASVERGKACCTDDLNQIFLEEREFQRSNGIDGALIDALKKMVPHKQTASRLERQLVIISDDDFGWFASYGLPVIARNKLDDNKKSKNLWYEEALAPDTLMYAMVFERKDGALGKVQSMFETKPYLQLGGNETVGMGWFAVKILEQGEGR | not soluble |
